Assay [1] addresses human HER2 (hHER2) on cells (human). In words: cell-based or functional assay.
Assay [2] addresses HER2 and TROP2 expressed together on NCI-H292 cells and NCI-N87 cells (human). In words: cell-based or functional assay.
The target of assay [3] is human HER2 (hHER2) on cells (human). In words: flow cytometry, NCI-H292 cells (express HER2 and TROP2).
Assay [4] has the same target. The experiment in a line: flow cytometry, NCI-N87 cells (express HER2 and TROP2). For orientation: A flow cytometer gives signals particle by particle.

We go through 3 substances from US20250059297A1.

As for Isotype control (antibody), in assay [1], the endocytosis: MFI is 9840 and the endocytosis: Percentage of Positive (%) turned out to be 1.1%. In assay [2], this substance displayed an endocytosis, direct detection: MFI of 4900; an endocytosis, direct detection: Percentage of Positive Population of 1.86%; an endocytosis, indirect detection: MFI of 4920; an endocytosis, indirect detection: Percentage of Positive Population of 1.88%.

In assay [1], Pertuzumab analog (antibody) registered an endocytosis, direct detection: MFI of 15700; an endocytosis, direct detection: Percentage of Positive Population of 74.7%; an endocytosis, indirect detection: MFI of 21000; an endocytosis, indirect detection: Percentage of Positive Population of 79.5%. In addition, in assay [1], the endocytosis: MFI stood at 100000 and the endocytosis: Percentage of Positive (%) is 97.1%.

For the substance Trastuzumab analog (antibody), the flow cytometry test result (%) in assay [3] was determined as 97.8%. Moreover, the flow cytometry test result (%) in assay [4] is 98.5%. Moreover, in assay [1], the endocytosis, direct detection: MFI came out at 18900; the endocytosis, direct detection: Percentage of Positive Population was 82.5%; the endocytosis, indirect detection: MFI is 23400; the endocytosis, indirect detection: Percentage of Positive Population is 87.3%. Moreover, in assay [1], the endocytosis: MFI came to 50400 and the endocytosis: Percentage of Positive (%) is 88%.
